# Assay results as given in the RNAGym collection of RNA variant scans (doi:10.1073/pnas.2313332121).
# B1: TPR t1 (parent)
# chain: GACCAAUCUGCCCUCAGAGCUCGAGAACAUCUUCGGAUGCAGAGGAGGCAGGCUUCGGUGGCGCGAUAGCGCCAACGUCCUCAACCUCCAAUGCAUCCCACCACAUGAUGAUGCCUGAAGAGCCUUGGUUUUUUG
# Variants of: B1
# Test: polymerase ribozyme fitness, log enrichment relative to wild type (log ratio); higher = more active; in vitro selection for triplet polymerase activity
# How it was run: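 Mutant libraries for each subunit of a heterodimeric triplet polymerase ribozyme were made by PCR and then transcribed. Each library underwent one round of in vitro selection in triplicate: annealing with a biotinylated primer, the partner subunit and triplets, frozen incubation at −7 °C, gel excision of extended constructs, streptavidin-bead capture and RT-PCR. Input and output libraries were Illumina-sequenced, and only genotypes with ≥10 input reads and ≥1 read per output were kept. Fitness is the logarithm, base 2, of genotype enrichment over wild-type enrichment, computed from inverse-variance-weighted replicate averages.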
row,Variant,polymerase ribozyme fitness (log ratio)
1,U54A U55A G61A A74G,-1.53
2,U54A G57U U78A A95U G120U,-0.728
3,U54C G122A G128U,-3.12
4,U54C C94G C99U,-4.42
5,C56A A90C,-1.57
6,C56A C76G,0.138
7,G57A G63A,-2.04
8,C56U C76A,-2.9
9,U54G C79A,-2.11
10,C56A C115A,-0.059
11,C56U G71A,-2.84
12,C56U G71U,-1.85
13,U55A U59C U78G C82A G110A,-2.6
14,U55A C64A C115G G128A,-6.49
15,C53U U59C U96A,-1.65
16,U55C A66U A75U,-0.518
17,U55C C56U G69C C85U,-4.97
18,U54C C94A G113U,-3.83
19,U54A C70U G113U C114G A121C,-2.74
20,C56U C80U,-1.17
21,C56A G60U,0.0473
22,U55A G61U,-0.0687
23,C56U C73G U96A U106A,-3.7
24,U54A C101U G120A,0.15

row,Variant,polymerase ribozyme fitness (log ratio)
1,C56U U96G C101A G113C,-3.97
2,C56G C73G,-2.66
3,C53U U78C G120C,-0.0303
4,U54C G60U U133G,-0.398
5,C56U C88U,-0.153
6,C56A G58C,-0.496
7,C53U G60A C73A U106G C123G U126A,-2.6
8,C56A C115U U130A,-1.24
9,C56A C99A,-6.08
10,C56A G69A C101U G110A,-5.53
11,C56U G61U G93A A111U U116C,-4.78
12,U54A U81A,-0.628
13,C56U A90G G93C,-1.38
14,C53U U109G,-4.32
15,U54A G113A C123U,-2.23
16,U54C C79G U125C,-4.66
17,C56U C73U,-0.755
18,U55G U78A,-0.34
19,C56U A90G U125A,-0.318
20,U54C C98U A121U,1.37
21,C53U U54G G117A,-0.796
22,U54A U92G,-2.06
23,U54G C86A U129G,-0.985
24,C56U G117A,-1.46

row,Variant,polymerase ribozyme fitness (log ratio)
1,C56A A118G,-0.557
2,C56U G57A C79G,-1.48
3,C53U G113C,-1.77
4,U54A U96C,0.104
5,U54A A66G C70G C124U U129G,-6.53
6,C56U G77A C94U C102A,-2.87
7,C53U U59C,-0.508
8,C56U C104U,0.166
9,U54C C72U,-0.0207
10,U54A C88G,-1.9
11,U54A C124A G128U,-0.136
12,U54A G60C G113C,-2.11
13,U55G C82U A100U G113U,-4.11
14,C56U A90G U132A,0.308
15,C53U U78C,-0.767
16,C53U U78G,-0.118
17,C56G U96A,-0.238
18,C56G C70A A118U,-2.37
19,U54G A75U C89U,-0.98
20,U54A C72U C97U,-1.24
21,C56A C64U,-0.751
22,C56A C79G C123G U133A,1.29
23,U55G A74U U81A C85G G122A,-4.4
24,G57A A103G,-4.05

row,Variant,polymerase ribozyme fitness (log ratio)
1,C56G A74U C86A,-2.4
2,C56A U112A,1.46
3,U54G C82A A91C C115G,-4.39
4,C56G C72G C115A,-2.98
5,C56G U87C,-0.336
6,U54G C56U A121G C124A,-4.56
7,C56G C114G,-3.74
8,U55G,0.0266
9,U55C,-0.521
10,U55A,-0.12
11,G57A G60A,-0.384
12,U55C G57U A66C,0.353
13,C56U C82G U130C,-0.672
14,C56U U130C,1.02
15,C56U U130A,0.174
16,C53U G58U,-0.0375
17,C56U C80U C101U A121C,0.686
18,U54G G60U,-3.4
19,C56G C62U C64U C82A C89U C123A,-3.52
20,C56U C101G,-2.07
21,C56A G93U,-2.21
22,U54G U132C,-0.456
23,C56G U129C,-0.877
24,C53U G63A C80A A105C G113U,-6.53

row,Variant,polymerase ribozyme fitness (log ratio)
1,U55C G71C C104U,-0.984
2,U55C G58A G60U U78A G110A,-1.19
3,C56G G120C,0.755
4,U55G C56U C88G,-2.34
5,U54G C101G C115G U116A,-6.37
6,U55A C56A,-0.0197
7,C53U G57U A121C,1.4
8,C56U G93A C97U U129A,-2.25
9,C56A G107A,-3.75
10,U55G C56A A83G,-1.72
11,C56U U96A U106A,-0.662
12,U55G G69C A119U G127C,-1.89
13,C56U C70U U96A,-2.06
14,C56U U133A,-0.575
15,C56A A83G,-1.6
16,C56U U59G A74G C102A G127U,-3.57
17,G57A A95C,-1.81
18,C56A G57U U78C G113C,-3.22
19,U54G C62U U81A,-1.77
20,U54C G57C U112C,1.77
21,C56A C64U C124U G128A,-1.71
22,C56G A68G C73A A111G G135U,-6.08
23,C56A G69U C73U C124A,1.14
24,U54G G60A U92A G107C G117A,-6.96

row,Variant,polymerase ribozyme fitness (log ratio)
1,C56A G120U,-0.119
2,C53U G93A A105C G117U,-6.56
3,U54A G61U C62U U96G,-6.42
4,U55A C62U C85A A100U C102U,-5.11
5,U54A C64U A95C,-0.888
6,C56G G57A G61C A118G,-4.8
7,U55C G69U A90G U112C A119U,0.0646
8,U55G C73G,1
9,C56G G69U U81A C88A A100U,-2.69
10,U54C A103G,-4.75
11,C56U G63U,-4.18
12,C53U G60U C80U G93C C97U C101U U133A,-3.62
13,U54A C79A G93U C114U G117A,-6.48
14,G57A G69U,-0.426
15,C56U C73A A100U,-1.12
16,C56A C88U A95C A108G,-3.49
17,U55C C72G C79U,0.018
18,C56A C97U,-1.33
19,C56A C88G A118U,-1.12
20,U55A C114U,-2.35
21,U54A C115U,-1.11
22,C56G C89G U96A,-2.31
23,C56A C72U C82U C85U,-1.52
24,C56A G61C,-5.03

row,Variant,polymerase ribozyme fitness (log ratio)
1,C56A C101U G110A,-1.05
2,C56G C64U C123U,0.0926
3,C56A C70U U92G,-4.08
4,C56A G63U G77C C115G,-4.37
5,C56G C89G A90C,-3.29
6,C56U C115A U133C,1.27
7,C56U G128A,-1.64
8,C56U C70A C115A G122A,-3.13
9,U55G C72G A100C A111U,-4.23
10,U55A C85A U112G,-2.37
11,C56U C62G U112G,-5.4
12,C56G C80A,-1.38
13,C56U G61C G117C,-4.62
14,U55A C88U,0.678
15,C56G G58C,0.394
16,C56A C124A G127A,0.497
17,U54A G69U,-0.707
18,U54A G69C,-1.12
19,C56G C94G U112A,-0.000426
20,U55G C70G,-2.34
21,U55G A100C,-0.346
22,U55A C62U C72U G120A,-0.106
23,C53U G61A C82A C86G U133A,-1.32
